Experimental data taken from US20260274980A1 (BIOARCTIC, published 2026).

B1: 2A-3 #5 (bispecific antibody, human IgG1, kappa)
heavy: not shown
chain: DIVMTQAPLSLPVSLGDQASISCRSSQSIVHSNGNTYLEWYLQKPGQSPKLLIYKVSNRFSGVPDRFSGSGSGTDFTLKISRVEAEDLGIYYCFQGSHVPPTFGGGTKLEIKRTVAAPSVFIFPPSDEQLKSGTASVVCLLNNFYPREAKVQWKVDNALQSGNSQESVTEQDSKDSTYSLSSTLTLSKADYEKHKVYACEVTHQGLSSPVTKSFNRGECGGGGSGGGGSEVQLVQSGAEVKKPGSSVKVSCKASGYIFTDYNMDWVRQAPGQGLEWIGDINPDADTTSYNEKFKGRATLTVDKSTSTAYMELSSLRSEDTAVYYCARGGYSGSSYYHPMDYWGQGTLVTVSSGGGGSGGGGSGGGGSDIQMTQSPSSVSASVGDRVTITCKSSQSLLYSTNQKNYLAWYQQKPGKAPKLLIYWASTRESGVPSRFSGSGSGTDFTLTISSLQPEDFATYYCQQYFIYPRTFGQGTKVEIKGGGGSGGGGSGGGGSGGGGSGGGGSDIVMTQAPLSLPVSLGDQASISCRSSQSIVHSNGNTYLEWYLQKPGQSPKLLIYKVSNRFSGVPDRFSGSGSGTDFTLKISRVEAEDLGIYYCFQGSHVPPTFGGGTKLEIKRTVAAPSVFIFPPSDEQLKSGTASVVCLLNNFYPREAKVQWKVDNALQSGNSQESVTEQDSKDSTYSLSSTLTLSKADYEKHKVYACEVTHQGLSSPVTKSFNRGEC
notes: also called Gen 2A construct #5; VH first
B2: 2A-3 #6 (bispecific antibody, human IgG1, kappa)
heavy: not shown
chain: DIVMTQAPLSLPVSLGDQASISCRSSQSIVHSNGNTYLEWYLQKPGQSPKLLIYKVSNRFSGVPDRFSGSGSGTDFTLKISRVEAEDLGIYYCFQGSHVPPTFGGGTKLEIKRTVAAPSVFIFPPSDEQLKSGTASVVCLLNNFYPREAKVQWKVDNALQSGNSQESVTEQDSKDSTYSLSSTLTLSKADYEKHKVYACEVTHQGLSSPVTKSFNRGECGGGGSGGGGSGGGGSEVQLVQSGAEVKKPGSSVKVSCKASGYIFTDYNMDWVRQAPGQGLEWIGDINPDADTTSYNEKFKGRATLTVDKSTSTAYMELSSLRSEDTAVYYCARGGYSGSSYYHPMDYWGQGTLVTVSSGGGGSGGGGSGGGGSDIQMTQSPSSVSASVGDRVTITCKSSQSLLYSTNQKNYLAWYQQKPGKAPKLLIYWASTRESGVPSRFSGSGSGTDFTLTISSLQPEDFATYYCQQYFIYPRTFGQGTKVEIKGGGGSGGGGSGGGGSGGGGSGGGGSDIVMTQAPLSLPVSLGDQASISCRSSQSIVHSNGNTYLEWYLQKPGQSPKLLIYKVSNRFSGVPDRFSGSGSGTDFTLKISRVEAEDLGIYYCFQGSHVPPTFGGGTKLEIKRTVAAPSVFIFPPSDEQLKSGTASVVCLLNNFYPREAKVQWKVDNALQSGNSQESVTEQDSKDSTYSLSSTLTLSKADYEKHKVYACEVTHQGLSSPVTKSFNRGEC
notes: also called Gen 2A construct #6; VH first
B3: 2A-3 #8 (bispecific antibody, human IgG1, kappa)
heavy: not shown
chain: DIVMTQAPLSLPVSLGDQASISCRSSQSIVHSNGNTYLEWYLQKPGQSPKLLIYKVSNRFSGVPDRFSGSGSGTDFTLKISRVEAEDLGIYYCFQGSHVPPTFGGGTKLEIKRTVAAPSVFIFPPSDEQLKSGTASVVCLLNNFYPREAKVQWKVDNALQSGNSQESVTEQDSKDSTYSLSSTLTLSKADYEKHKVYACEVTHQGLSSPVTKSFNRGECGGGGSDIQMTQSPSSVSASVGDRVTITCKSSQSLLYSTNQKNYLAWYQQKPGKAPKLLIYWASTRESGVPSRFSGSGSGTDFTLTISSLQPEDFATYYCQQYFIYPRTFGQGTKVEIKGGGGSGGGGSGGGGSEVQLVQSGAEVKKPGSSVKVSCKASGYIFTDYNMDWVRQAPGQGLEWIGDINPDADTTSYNEKFKGRATLTVDKSTSTAYMELSSLRSEDTAVYYCARGGYSGSSYYHPMDYWGQGTLVTVSSGGGGSGGGGSGGGGSGGGGSDIVMTQAPLSLPVSLGDQASISCRSSQSIVHSNGNTYLEWYLQKPGQSPKLLIYKVSNRFSGVPDRFSGSGSGTDFTLKISRVEAEDLGIYYCFQGSHVPPTFGGGTKLEIKRTVAAPSVFIFPPSDEQLKSGTASVVCLLNNFYPREAKVQWKVDNALQSGNSQESVTEQDSKDSTYSLSSTLTLSKADYEKHKVYACEVTHQGLSSPVTKSFNRGEC
notes: also called Gen 2A construct #8; VL first
B4: 2A-3 #3 (bispecific antibody, human IgG1, kappa)
heavy: not shown
chain: DIVMTQAPLSLPVSLGDQASISCRSSQSIVHSNGNTYLEWYLQKPGQSPKLLIYKVSNRFSGVPDRFSGSGSGTDFTLKISRVEAEDLGIYYCFQGSHVPPTFGGGTKLEIKRTVAAPSVFIFPPSDEQLKSGTASVVCLLNNFYPREAKVQWKVDNALQSGNSQESVTEQDSKDSTYSLSSTLTLSKADYEKHKVYACEVTHQGLSSPVTKSFNRGECGGGGSGGGGSGGGGSEVQLVQSGAEVKKPGSSVKVSCKASGYIFTDYNMDWVRQAPGQGLEWIGDINPDADTTSYNEKFKGRATLTVDKSTSTAYMELSSLRSEDTAVYYCARGGYSGSSYYHPMDYWGQGTLVTVSSGGGGSGGGGSGGGGSDIQMTQSPSSVSASVGDRVTITCKSSQSLLYSTNQKNYLAWYQQKPGKAPKLLIYWASTRESGVPSRFSGSGSGTDFTLTISSLQPEDFATYYCQQYFIYPRTFGQGTKVEIKGGGGSGGGGSGGGGSGGGGSDIVMTQAPLSLPVSLGDQASISCRSSQSIVHSNGNTYLEWYLQKPGQSPKLLIYKVSNRFSGVPDRFSGSGSGTDFTLKISRVEAEDLGIYYCFQGSHVPPTFGGGTKLEIKRTVAAPSVFIFPPSDEQLKSGTASVVCLLNNFYPREAKVQWKVDNALQSGNSQESVTEQDSKDSTYSLSSTLTLSKADYEKHKVYACEVTHQGLSSPVTKSFNRGEC
notes: also called Gen 2A construct #3; VH first
B5: 2A-3 #14 (bispecific antibody, human IgG1, kappa)
heavy: not shown
chain: DIVMTQAPLSLPVSLGDQASISCRSSQSIVHSNGNTYLEWYLQKPGQSPKLLIYKVSNRFSGVPDRFSGSGSGTDFTLKISRVEAEDLGIYYCFQGSHVPPTFGGGTKLEIKRTVAAPSVFIFPPSDEQLKSGTASVVCLLNNFYPREAKVQWKVDNALQSGNSQESVTEQDSKDSTYSLSSTLTLSKADYEKHKVYACEVTHQGLSSPVTKSFNRGECGGGGSGGGGSGGGGSGGGGSGGGGSDIQMTQSPSSVSASVGDRVTITCKSSQSLLYSTNQKNYLAWYQQKPGKAPKLLIYWASTRESGVPSRFSGSGSGTDFTLTISSLQPEDFATYYCQQYFIYPRTFGQGTKVEIKGGGGSGGGGSGGGGSEVQLVQSGAEVKKPGSSVKVSCKASGYIFTDYNMDWVRQAPGQGLEWIGDINPDADTTSYNEKFKGRATLTVDKSTSTAYMELSSLRSEDTAVYYCARGGYSGSSYYHPMDYWGQGTLVTVSSGGGGSGGGGSGGGGSGGGGSGGGGSDIVMTQAPLSLPVSLGDQASISCRSSQSIVHSNGNTYLEWYLQKPGQSPKLLIYKVSNRFSGVPDRFSGSGSGTDFTLKISRVEAEDLGIYYCFQGSHVPPTFGGGTKLEIKRTVAAPSVFIFPPSDEQLKSGTASVVCLLNNFYPREAKVQWKVDNALQSGNSQESVTEQDSKDSTYSLSSTLTLSKADYEKHKVYACEVTHQGLSSPVTKSFNRGEC
notes: also called Gen 2A construct #14; VL first
B6: 2A-3 #13 (bispecific antibody, human IgG1, kappa)
heavy: not shown
chain: DIVMTQAPLSLPVSLGDQASISCRSSQSIVHSNGNTYLEWYLQKPGQSPKLLIYKVSNRFSGVPDRFSGSGSGTDFTLKISRVEAEDLGIYYCFQGSHVPPTFGGGTKLEIKRTVAAPSVFIFPPSDEQLKSGTASVVCLLNNFYPREAKVQWKVDNALQSGNSQESVTEQDSKDSTYSLSSTLTLSKADYEKHKVYACEVTHQGLSSPVTKSFNRGECGGGGSGGGGSGGGGSDIQMTQSPSSVSASVGDRVTITCKSSQSLLYSTNQKNYLAWYQQKPGKAPKLLIYWASTRESGVPSRFSGSGSGTDFTLTISSLQPEDFATYYCQQYFIYPRTFGQGTKVEIKGGGGSGGGGSGGGGSEVQLVQSGAEVKKPGSSVKVSCKASGYIFTDYNMDWVRQAPGQGLEWIGDINPDADTTSYNEKFKGRATLTVDKSTSTAYMELSSLRSEDTAVYYCARGGYSGSSYYHPMDYWGQGTLVTVSSGGGGSGGGGSGGGGSGGGGSGGGGSDIVMTQAPLSLPVSLGDQASISCRSSQSIVHSNGNTYLEWYLQKPGQSPKLLIYKVSNRFSGVPDRFSGSGSGTDFTLKISRVEAEDLGIYYCFQGSHVPPTFGGGTKLEIKRTVAAPSVFIFPPSDEQLKSGTASVVCLLNNFYPREAKVQWKVDNALQSGNSQESVTEQDSKDSTYSLSSTLTLSKADYEKHKVYACEVTHQGLSSPVTKSFNRGEC
notes: also called Gen 2A construct #13; VL first
B7: 2A-3 #12 (bispecific antibody, human IgG1, kappa)
heavy: not shown
chain: DIVMTQAPLSLPVSLGDQASISCRSSQSIVHSNGNTYLEWYLQKPGQSPKLLIYKVSNRFSGVPDRFSGSGSGTDFTLKISRVEAEDLGIYYCFQGSHVPPTFGGGTKLEIKRTVAAPSVFIFPPSDEQLKSGTASVVCLLNNFYPREAKVQWKVDNALQSGNSQESVTEQDSKDSTYSLSSTLTLSKADYEKHKVYACEVTHQGLSSPVTKSFNRGECGGGGSGGGGSDIQMTQSPSSVSASVGDRVTITCKSSQSLLYSTNQKNYLAWYQQKPGKAPKLLIYWASTRESGVPSRFSGSGSGTDFTLTISSLQPEDFATYYCQQYFIYPRTFGQGTKVEIKGGGGSGGGGSGGGGSEVQLVQSGAEVKKPGSSVKVSCKASGYIFTDYNMDWVRQAPGQGLEWIGDINPDADTTSYNEKFKGRATLTVDKSTSTAYMELSSLRSEDTAVYYCARGGYSGSSYYHPMDYWGQGTLVTVSSGGGGSGGGGSGGGGSGGGGSGGGGSDIVMTQAPLSLPVSLGDQASISCRSSQSIVHSNGNTYLEWYLQKPGQSPKLLIYKVSNRFSGVPDRFSGSGSGTDFTLKISRVEAEDLGIYYCFQGSHVPPTFGGGTKLEIKRTVAAPSVFIFPPSDEQLKSGTASVVCLLNNFYPREAKVQWKVDNALQSGNSQESVTEQDSKDSTYSLSSTLTLSKADYEKHKVYACEVTHQGLSSPVTKSFNRGEC
notes: also called Gen 2A construct #12; VL first

What follows are binders tested against T1, human transferrin receptor 1 (hTfR1) on cell surfaces (human, UniProt P02786 1-760) (assay: flow cytometry, Ramos cells).
T1 construct: Endogenous receptor on hCMEC/D3, THP-1, K562 and Ramos cells; also called CD71; endogenous hTfR1
T1 sequence (P02786 whole entry): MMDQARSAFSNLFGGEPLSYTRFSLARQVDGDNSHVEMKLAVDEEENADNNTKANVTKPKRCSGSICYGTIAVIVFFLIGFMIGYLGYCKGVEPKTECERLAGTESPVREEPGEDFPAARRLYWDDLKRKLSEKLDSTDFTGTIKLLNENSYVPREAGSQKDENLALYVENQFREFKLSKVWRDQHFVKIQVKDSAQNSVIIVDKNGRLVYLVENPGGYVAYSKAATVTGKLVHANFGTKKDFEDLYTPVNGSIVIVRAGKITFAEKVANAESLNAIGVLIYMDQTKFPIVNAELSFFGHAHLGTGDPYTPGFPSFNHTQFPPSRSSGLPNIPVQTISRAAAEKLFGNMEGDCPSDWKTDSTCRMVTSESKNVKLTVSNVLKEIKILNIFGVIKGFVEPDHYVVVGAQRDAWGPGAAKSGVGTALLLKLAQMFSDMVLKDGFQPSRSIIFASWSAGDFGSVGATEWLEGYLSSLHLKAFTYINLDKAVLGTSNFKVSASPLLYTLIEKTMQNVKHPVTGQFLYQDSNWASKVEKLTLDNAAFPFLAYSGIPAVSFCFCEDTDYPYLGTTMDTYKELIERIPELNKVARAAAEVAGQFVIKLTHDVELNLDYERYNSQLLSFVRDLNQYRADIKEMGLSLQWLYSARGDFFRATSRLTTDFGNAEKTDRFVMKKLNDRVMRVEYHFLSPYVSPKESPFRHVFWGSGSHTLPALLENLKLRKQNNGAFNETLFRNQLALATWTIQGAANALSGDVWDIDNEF
Experimental: (§1) Binding to hTfR1 on cells was measured on the immortalized human B lymphocyte cell line Ramos (Sigma, cat: 85030802). This cell line is known for expressing high levels of hTfR1 on the cell surface. Fcγ receptors were blocked using Fc receptor blocker (Innovex biosciences, #NB309-4X-40) for 30 min at 4° C., after which the cells were washed in PBS. The cells were seeded in a 96 well V bottom plate (#249570, Thermo Scientific Nunc), and serially diluted Gen 2A constructs were added and the plate was incubated at 4° C. overnight. The cells were washed with PBS with 1% BSA and then fixed with freshly prepared 4% formaldehyde (Thermo Scientific Pierce, #28906) diluted in PBS for 15 min at room temperature. The cells were washed with PBS containing 1% BSA, and then stained. […] Staining was carried out for 30 min at 4° C. After incubation with the detection reagent, cells were washed with PBS containing 1% BSA. The cells were finally resuspended in 200 μl PBS with 1% BSA and acquired using a BD FACSLyric flow cytometer system (BD Biosciences). Samples were analyzed using flowJo software (BD Biosciences).

Binding result, binds:
B1, B2, B3, B4

What follows are binders tested against T1, human transferrin receptor 1 (hTfR1) on … (assay: flow cytometry on Ramos cells (hTfR1 on the surface), Fc receptors blocked, overnight at 4 °C, detection with anti-human IgG-Alexa Fluor 488).
Experimental: as §1

Binding result, binds:
B5, B6, B7
